We go through 2 molecules from patent publication US20220072032A1 (AARHUS UNIVERSITET, published 2022).

For test [1], the target named is Wild type human PCSK9 (proprotein convertase subtilisin-like/kexin type 9) (human, UniProt Q8NBP7 31-692, 35S metabolic label in the immunoprecipitations). The test is described as follows: cell-based or functional assay.
In test [2] the target is T1, PCSK9 mutant R93R96R97R104R105H139 (all mutated to alanine) (human, UniProt Q8NBP7 31-692, 35S metabolic label).
T1 construct: also called mutant PCSK9; 35S-mutant PCSK9
T1 sequence (Q8NBP7 other isoform, or with tags, fused parts or gaps mutant limits assumed): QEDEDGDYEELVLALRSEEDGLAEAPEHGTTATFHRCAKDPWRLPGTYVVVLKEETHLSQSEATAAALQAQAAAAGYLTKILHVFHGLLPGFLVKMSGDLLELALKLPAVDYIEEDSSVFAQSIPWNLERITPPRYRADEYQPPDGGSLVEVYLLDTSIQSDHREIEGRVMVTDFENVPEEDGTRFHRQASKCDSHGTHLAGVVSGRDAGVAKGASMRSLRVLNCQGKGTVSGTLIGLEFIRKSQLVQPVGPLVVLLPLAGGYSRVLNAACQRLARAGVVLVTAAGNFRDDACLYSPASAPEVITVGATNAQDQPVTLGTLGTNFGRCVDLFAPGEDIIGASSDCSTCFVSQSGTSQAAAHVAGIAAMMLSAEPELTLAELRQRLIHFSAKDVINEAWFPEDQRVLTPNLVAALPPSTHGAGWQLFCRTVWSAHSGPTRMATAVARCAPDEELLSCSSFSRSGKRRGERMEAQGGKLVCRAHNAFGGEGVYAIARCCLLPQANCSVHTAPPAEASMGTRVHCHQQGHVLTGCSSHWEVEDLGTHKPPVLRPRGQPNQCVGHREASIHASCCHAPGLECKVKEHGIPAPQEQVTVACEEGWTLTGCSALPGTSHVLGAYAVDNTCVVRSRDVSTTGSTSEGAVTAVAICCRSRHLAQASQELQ
The test can be described thus: immunoprecipitation of 35S-labelled PCSK9 mutant R93R96R97R104R105H139 (all to alanine) by mAb, autoradiography (16 h) [CONT.) H].

In another test the target is T2, R93R104R105H139 (35S metabolic label).
T2 construct: also called 35S PCSK9 variant R93R104R105H139
T2 sequence (PCSK9, as listed by the source limits assumed): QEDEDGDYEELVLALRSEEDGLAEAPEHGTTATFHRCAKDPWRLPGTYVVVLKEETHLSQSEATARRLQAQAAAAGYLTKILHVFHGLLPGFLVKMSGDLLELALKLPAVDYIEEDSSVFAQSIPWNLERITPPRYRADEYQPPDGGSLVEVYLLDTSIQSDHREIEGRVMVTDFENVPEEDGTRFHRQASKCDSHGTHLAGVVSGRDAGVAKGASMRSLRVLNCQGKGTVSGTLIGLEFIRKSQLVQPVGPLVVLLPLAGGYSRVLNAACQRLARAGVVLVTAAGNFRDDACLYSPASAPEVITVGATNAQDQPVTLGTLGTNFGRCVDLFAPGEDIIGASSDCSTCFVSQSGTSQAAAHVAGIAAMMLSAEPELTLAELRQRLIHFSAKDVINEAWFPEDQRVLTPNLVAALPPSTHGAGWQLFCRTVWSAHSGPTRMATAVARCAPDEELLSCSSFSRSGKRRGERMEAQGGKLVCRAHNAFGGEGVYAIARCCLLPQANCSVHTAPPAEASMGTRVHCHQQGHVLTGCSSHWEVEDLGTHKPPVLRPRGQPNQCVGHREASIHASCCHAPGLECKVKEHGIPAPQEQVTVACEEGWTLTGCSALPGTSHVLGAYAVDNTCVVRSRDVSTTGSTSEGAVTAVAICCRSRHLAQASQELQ
The test can be described thus: immunoprecipitation of 35S-labelled PCSK9 WT and alanine variants, autoradiography [CONT.) I].

Test [3] addresses T3, PCSK9 mutant R96R97 (alanine substitutions) (human, UniProt Q8NBP7 31-692, 35S metabolic label).
T3 construct: also called variant R96R97
The description is as above.

Test [4] has as its target T4, PCSK9 mutant R104R105 (alanine substitutions) (human, UniProt Q8NBP7 31-692, 35S metabolic label).
T4 construct: also called variant R104R105
The description is as above.

Sequence of Wild type human PCSK9 (proprotein convertase subtilisin-like/kexin type 9) (Q8NBP7 31-692 limits assumed): as the sequence (PCSK9, as listed by the source limits assumed) above, with A63R, A74R, A75R, A109H counted along it
T4 sequence (Q8NBP7 other isoform, or with tags, fused parts or gaps mutant limits assumed): as the sequence (PCSK9, as listed by the source limits assumed) above, with A63R, A109H counted along it
T3 sequence (Q8NBP7 other isoform, or with tags, fused parts or gaps mutant limits assumed): as the sequence (PCSK9, as listed by the source limits assumed) above, with A63R, R66A, R67A, A74R, A75R, A109H counted along it

B1: mAb 8H4 (rat hybridoma BNT-8H4-B8/C7-E11) (antibody, V domains shown)
VH: QVTLKESGPGILQPSQTLSLTCSFSGFSLSSSGICVSWIRQPSGKGLEWLATICWEDSKGYNPSLKNRLTISKDTSNNQALLRITSVDTADTAIYYCARVYYWYFDFWGPGTMVTVSS
VL: DIVMTQSPSLLSASVGDRVTLSCKGSQNINNYLAWYQQKLGEAPKLLIYNTNSLQTGIPSRFSGSGSGTDCTLTIRSLQPEDVATYFCYQYNNGNTFGGGTKLELK
notes: Rat monoclonal antibody, used as conditioned hybridoma medium
As for B1, the “cellular levels of LDLR in HepG2 cells (Western blot)” value in test [1] was approximately 2 fold. In test [2], the binding result was “no binding (tested: 500 µl conditioned hybridoma medium)”.

B2: mAb 5E11 (rat hybridoma BNT-5E11-D4/G1-E4) (antibody, V domains shown)
VH: EVQLQESGPGLVKPSQSLSLTCSVTGYTITSGYDWSWIRRFPGNTMEWMGDISYSGSTNYNPSLKSRVSITRDTSKNQFFLQLNSVTTGDTATYYCAKLPGWGQGTLVTVSS
VL: DVVLTQTPVFLSVTLGDQTSISCRSSQSLEYSDGYTYLEWYLQKPGQSPQLLIYEVSNRFSGVPDRFIGSGSGTDFTLKISRVEPEDLGVYYCFQGTHDPLTFGSGTKLEIK
notes: as for B1
Regarding B2, the “cellular levels of LDLR in HepG2 cells (Western blot)” value in test [1] is approximately 2 fold. Also, the binding result with R93R104R105H139 is listed as “no binding”; in test [3], “no binding”; in test [4], “no binding”; in test [2], “no binding (tested: 500 µl conditioned hybridoma medium)”.
